Reference: US20220204643A1 (published 2022)
One block for each binder: values may come before it.

Experiments:
Reticulocalbin 3 = molecular target: T1, Reticulocalbin 3 (human, UniProt Q96D15 21-328)
T1 construct: HuProt array protein, full-length recombinant from yeast; also called RCN3
T1 sequence: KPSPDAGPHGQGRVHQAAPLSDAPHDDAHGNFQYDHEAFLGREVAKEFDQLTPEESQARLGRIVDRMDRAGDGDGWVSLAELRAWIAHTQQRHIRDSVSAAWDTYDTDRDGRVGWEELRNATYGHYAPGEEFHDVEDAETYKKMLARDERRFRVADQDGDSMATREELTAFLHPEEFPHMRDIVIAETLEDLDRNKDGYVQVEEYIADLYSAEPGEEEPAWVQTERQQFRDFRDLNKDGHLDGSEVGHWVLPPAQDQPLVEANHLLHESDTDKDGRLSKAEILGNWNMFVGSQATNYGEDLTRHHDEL

[1] = molecular target: T2, synaptotagmin 12, transcript variant X4 (human, UniProt Q8IV01 1-421)
T2 construct: HuProt array protein, full-length recombinant from yeast; also called SYT12
T2 sequence: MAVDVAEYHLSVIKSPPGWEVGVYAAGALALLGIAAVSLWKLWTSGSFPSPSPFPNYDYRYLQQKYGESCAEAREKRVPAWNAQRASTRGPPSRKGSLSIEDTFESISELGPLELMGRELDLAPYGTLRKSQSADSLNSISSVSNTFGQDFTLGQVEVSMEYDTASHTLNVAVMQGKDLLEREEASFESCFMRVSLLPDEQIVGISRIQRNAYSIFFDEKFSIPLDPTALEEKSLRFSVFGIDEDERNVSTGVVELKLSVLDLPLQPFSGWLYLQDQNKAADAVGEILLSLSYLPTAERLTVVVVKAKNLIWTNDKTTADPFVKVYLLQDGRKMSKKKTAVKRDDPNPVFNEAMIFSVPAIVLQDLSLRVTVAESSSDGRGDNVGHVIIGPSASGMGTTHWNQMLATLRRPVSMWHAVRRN

[2] = molecular target: T3, glycogen phosphorylase L, transcript variant 1 (human, UniProt P06737 2-847)
T3 construct: HuProt array protein, full-length recombinant from yeast; also called PYGL
T3 sequence: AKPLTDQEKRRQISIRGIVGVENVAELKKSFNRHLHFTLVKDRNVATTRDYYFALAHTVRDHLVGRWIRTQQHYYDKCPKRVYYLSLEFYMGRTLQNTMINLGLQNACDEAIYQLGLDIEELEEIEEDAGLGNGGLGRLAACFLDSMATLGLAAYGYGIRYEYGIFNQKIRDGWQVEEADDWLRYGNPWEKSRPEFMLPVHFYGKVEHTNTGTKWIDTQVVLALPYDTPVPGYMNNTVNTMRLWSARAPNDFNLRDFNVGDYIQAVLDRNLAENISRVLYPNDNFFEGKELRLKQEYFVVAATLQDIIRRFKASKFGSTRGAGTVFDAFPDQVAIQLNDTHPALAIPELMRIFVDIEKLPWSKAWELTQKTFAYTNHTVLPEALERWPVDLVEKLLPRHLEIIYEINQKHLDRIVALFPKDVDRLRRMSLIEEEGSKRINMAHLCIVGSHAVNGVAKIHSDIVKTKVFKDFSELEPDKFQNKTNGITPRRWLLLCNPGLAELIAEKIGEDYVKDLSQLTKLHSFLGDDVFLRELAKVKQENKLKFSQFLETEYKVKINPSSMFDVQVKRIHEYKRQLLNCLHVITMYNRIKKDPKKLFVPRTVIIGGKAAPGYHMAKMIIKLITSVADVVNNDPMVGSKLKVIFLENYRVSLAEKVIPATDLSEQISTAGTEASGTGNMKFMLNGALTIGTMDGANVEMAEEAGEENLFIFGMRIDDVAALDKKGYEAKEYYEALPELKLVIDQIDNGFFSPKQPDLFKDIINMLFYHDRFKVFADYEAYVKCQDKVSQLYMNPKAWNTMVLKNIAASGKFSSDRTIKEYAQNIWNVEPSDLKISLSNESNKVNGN

[3] = molecular target: T4, zinc finger DHHC-type containing 1, transcript variant 1 (human, UniProt Q8WTX9 1-485)
T4 construct: HuProt array protein, full-length recombinant from yeast; also called ZDHHC1
T4 sequence: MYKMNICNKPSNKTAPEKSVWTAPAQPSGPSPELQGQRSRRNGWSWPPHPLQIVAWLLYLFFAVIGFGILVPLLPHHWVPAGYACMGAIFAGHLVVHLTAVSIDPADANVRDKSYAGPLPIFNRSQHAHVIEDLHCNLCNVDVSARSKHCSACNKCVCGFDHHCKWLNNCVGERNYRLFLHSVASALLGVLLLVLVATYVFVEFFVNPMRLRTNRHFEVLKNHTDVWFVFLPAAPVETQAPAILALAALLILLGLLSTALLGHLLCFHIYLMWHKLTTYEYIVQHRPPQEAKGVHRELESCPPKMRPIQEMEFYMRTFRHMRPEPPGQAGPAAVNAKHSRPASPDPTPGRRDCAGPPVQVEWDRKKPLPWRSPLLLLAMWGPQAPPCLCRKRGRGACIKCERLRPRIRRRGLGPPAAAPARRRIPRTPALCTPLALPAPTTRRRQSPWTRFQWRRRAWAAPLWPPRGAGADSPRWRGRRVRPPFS

[4] = molecular target: T5, membrane palmitoylated protein 2, transcript variant 3 (human, UniProt Q14168 1-576); assay: protein array
T5 construct: on protein array; also called MPP2
T5 sequence: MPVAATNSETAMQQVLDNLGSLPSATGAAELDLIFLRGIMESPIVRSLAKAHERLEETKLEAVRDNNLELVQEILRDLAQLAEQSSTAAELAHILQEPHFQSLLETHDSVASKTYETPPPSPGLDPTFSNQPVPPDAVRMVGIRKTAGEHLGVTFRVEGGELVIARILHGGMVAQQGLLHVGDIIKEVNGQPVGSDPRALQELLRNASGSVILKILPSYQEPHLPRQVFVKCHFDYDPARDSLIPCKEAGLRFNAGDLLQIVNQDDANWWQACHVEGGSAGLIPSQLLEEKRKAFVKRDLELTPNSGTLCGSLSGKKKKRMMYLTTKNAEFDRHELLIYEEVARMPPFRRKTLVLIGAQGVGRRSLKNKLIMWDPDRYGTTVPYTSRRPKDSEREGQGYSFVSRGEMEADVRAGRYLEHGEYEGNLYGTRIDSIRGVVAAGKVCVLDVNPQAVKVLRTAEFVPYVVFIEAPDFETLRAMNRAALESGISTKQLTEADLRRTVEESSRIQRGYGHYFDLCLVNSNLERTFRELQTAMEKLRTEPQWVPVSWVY

[5] = molecular target: T6, kelch like family member 40 (human, UniProt Q2TBA0 1-621); assay: protein array
T6 construct: on protein array; also called KLHL40
T6 sequence: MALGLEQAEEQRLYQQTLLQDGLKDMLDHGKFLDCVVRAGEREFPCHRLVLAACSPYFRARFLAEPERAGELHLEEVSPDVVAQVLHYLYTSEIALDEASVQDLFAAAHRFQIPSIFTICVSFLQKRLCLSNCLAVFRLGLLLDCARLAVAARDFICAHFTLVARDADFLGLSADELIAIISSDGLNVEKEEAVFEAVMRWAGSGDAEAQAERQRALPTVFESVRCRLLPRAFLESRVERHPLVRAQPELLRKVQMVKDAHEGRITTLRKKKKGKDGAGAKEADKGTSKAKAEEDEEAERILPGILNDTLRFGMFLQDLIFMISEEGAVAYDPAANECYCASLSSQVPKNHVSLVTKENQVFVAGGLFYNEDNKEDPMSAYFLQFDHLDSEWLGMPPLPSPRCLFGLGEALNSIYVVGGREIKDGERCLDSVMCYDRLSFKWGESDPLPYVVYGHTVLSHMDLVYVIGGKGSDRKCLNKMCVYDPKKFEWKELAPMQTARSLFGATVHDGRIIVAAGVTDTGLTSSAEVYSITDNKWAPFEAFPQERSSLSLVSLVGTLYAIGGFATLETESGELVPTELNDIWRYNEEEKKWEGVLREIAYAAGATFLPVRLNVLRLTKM

[6] = molecular target: T7, retinoid X receptor alpha, transcript variant 1 (human, UniProt P19793 1-462)
T7 construct: HuProt array protein, full-length recombinant from yeast; also called RXRA
T7 sequence: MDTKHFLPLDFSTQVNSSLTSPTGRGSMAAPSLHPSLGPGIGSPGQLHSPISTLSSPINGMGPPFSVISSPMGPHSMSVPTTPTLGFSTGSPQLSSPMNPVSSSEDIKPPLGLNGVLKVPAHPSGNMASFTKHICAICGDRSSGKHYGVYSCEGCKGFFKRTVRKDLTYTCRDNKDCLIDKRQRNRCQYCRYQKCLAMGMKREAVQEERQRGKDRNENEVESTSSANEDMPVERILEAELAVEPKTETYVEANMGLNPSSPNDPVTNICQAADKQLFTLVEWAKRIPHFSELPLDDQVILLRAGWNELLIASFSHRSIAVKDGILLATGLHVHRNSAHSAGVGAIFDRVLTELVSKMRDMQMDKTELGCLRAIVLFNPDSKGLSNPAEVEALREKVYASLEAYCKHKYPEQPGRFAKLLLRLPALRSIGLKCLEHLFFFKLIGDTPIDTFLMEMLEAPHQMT

[7] = molecular target: T8, SNAP associated protein, transcript variant 1 (human, UniProt O95295 2-136)
T8 construct: HuProt array protein, full-length recombinant from yeast; also called SNAPIN
T8 sequence: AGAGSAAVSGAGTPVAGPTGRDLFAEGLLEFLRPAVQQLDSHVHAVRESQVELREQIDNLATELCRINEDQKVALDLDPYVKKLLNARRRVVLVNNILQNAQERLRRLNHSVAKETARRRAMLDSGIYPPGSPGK

binding result (Reticulocalbin 3): binds
binding result [1]: binds
binding result [2]: binds
B1: TBLA1007 (antibody, V domains shown)
VH: QVQLVQSGAEVKKPGASVKVSCKASGYTFTNYGFSWVRQAPGQGLEWMGRITTYNRDTIYAQKFQGRVTMTTDTSTSTAYMELRSLRSDDTAVYFCARVVPGDSVYGAFDIWGQGTMVTVSS
VL: DIQMTQSPSSLSASVGDRVTITCRASQSISSYLNWYQQKPGRAPRLLIYAASRLQIGVPSRFSGSGSGTDFTLTISSLQPEDFATYYCQQSYRMPCSFGQGTKLEI
notes: detected with anti-human IgG Fc

binding result [3]: binds
B2: TBLA1003 (antibody, V domains shown)
VH: EVQLVESGGGLIQPGRSLRLSCAASGFTFEDYAMHWVRQAPGKGLEWVSGISWNSGNIGYADSVKGRFTISRDNAKNSLYLQMHSLRPEDTALYYCAKDINFFGLGTGGGAMDVWGQGTTVTVSS
VL: DIQMTQSPSYVSASVGDRVTITCRASQGIDVWLAWYQQKPGKAPKLLIYTASSLQSGVPSRFSGSGGGTEFTLTISSLQPEDFATYYCQQSNSFPGTFGPGTKVDVKR
notes: as for B1

binding result [4]: binds
binding result [5]: binds
B3: TBRE1012 (antibody, V domains shown)
VH: QVQLQESGPGLVKPTQTLSLTCTVSGGSISSGSYYWNWIRQPAGKGLEWIGNIYTSGNTDYNPSLKSRVTISLDTSKNQVSLNLTSVTAADTAVYYCATTPSSSWYWYFDPWGQGTLVTVSS
VL: DLQMTQSPSSLSASIGDRVTITCRASQSISTYFNWYQQKPGKAPKLLIYAASSLQSGVPSRFSGSGSGTDFTLTITSLQPEDFATYYCQQTYSNPWTFGQGTKVDFKR
notes: VH/VL only

binding result [6]: binds
B4: TBLA1004 (antibody, V domains shown)
VH: QITLKESGPTLVKPTQTLTLTCTFSGFSLSTSGVGVGWIRQPPGKALEWLALIYWDDDKRYSPSLKSRLTITKDTSKNQVVLTMTNMDPVDTATYYCAHRAIVGLFDYWGQGTLVTVSS
VL: PSVLTQPPSASGTPGQRVTISCSGSSSNIGSNYVYWYQQLPGTAPKFLIYRNNQRPSGVPDRFSGSKSGTSASLAISGLRSEDEADYYCAAWEDSLSGPVFGGGTKLTVL
notes: as for B1

binding result [7]: binds
B5: TBLA1006 (antibody, V domains shown)
VH: VQLVDSGGGLVQPGRSLRLSCAASGFVFDDYAMHWVRQVPGKGLEWVSGISWNSVSIGYADSVKGRFTISRDNAKNSLYLQMNSLRPEDAALYYCVKSFSAEYYYYYYGMDVWGQGTTVTVSS
VL: LYVLTQPPSVSVAPGTTAWISCGGNNIGIKSVHWYQQKPGQAPLLVISYDSDRPSVIPERFSVSNSGNTVTLTISRVEAGDEADYYCQVWDNGHSHWVFGGGTKLTVLG
notes: as for B1
